Assay results taken from patent US20070077617.

Tests used:
[1] = biological target: fusion protein PRA
[2] = biological target: fusion protein PRC
[3] = biological target: fusion protein PRD
[4] = biological target: fusion protein PRE
[5] = biological target: fusion protein PRF
[6] = biological target: fusion protein PRG
[7] = biological target: fusion protein PRH
[8] = biological target: fusion protein PRI
[9] = biological target: fusion protein PRK
[10] = biological target: fusion protein PRL
[11] = biological target: fusion protein PRM
[12] = biological target: fusion protein PRN
[13] = biological target: fusion protein PRP
[14] = biological target: fusion protein PRQ
[15] = biological target: fusion protein PRR
[16] = biological target: fusion protein PRS
[17] = biological target: fusion protein PRT
[18] = biological target: fusion protein PRW
[19] = biological target: fusion protein PRY

Measured: relative cleavage efficiency

Sequence of fusion protein PRF (chain, as listed by the source): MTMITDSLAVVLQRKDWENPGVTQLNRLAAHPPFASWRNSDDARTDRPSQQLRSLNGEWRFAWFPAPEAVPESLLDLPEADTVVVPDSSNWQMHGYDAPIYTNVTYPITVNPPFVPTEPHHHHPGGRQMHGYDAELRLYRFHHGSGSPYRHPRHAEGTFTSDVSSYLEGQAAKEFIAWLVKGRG
Sequence of fusion protein PRH (chain, as listed by the source): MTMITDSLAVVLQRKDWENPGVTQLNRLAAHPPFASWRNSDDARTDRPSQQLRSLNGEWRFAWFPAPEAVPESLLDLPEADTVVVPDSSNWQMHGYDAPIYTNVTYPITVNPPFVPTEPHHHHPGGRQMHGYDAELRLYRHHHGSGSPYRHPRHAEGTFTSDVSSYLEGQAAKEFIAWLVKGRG
Sequence of fusion protein PRQ (chain, as listed by the source): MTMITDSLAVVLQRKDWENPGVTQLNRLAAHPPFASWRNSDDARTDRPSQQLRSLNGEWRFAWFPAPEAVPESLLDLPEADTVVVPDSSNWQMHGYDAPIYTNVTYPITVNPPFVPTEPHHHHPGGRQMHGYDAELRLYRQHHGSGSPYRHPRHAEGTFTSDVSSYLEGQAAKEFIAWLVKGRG
Sequence of fusion protein PRG (chain, as listed by the source): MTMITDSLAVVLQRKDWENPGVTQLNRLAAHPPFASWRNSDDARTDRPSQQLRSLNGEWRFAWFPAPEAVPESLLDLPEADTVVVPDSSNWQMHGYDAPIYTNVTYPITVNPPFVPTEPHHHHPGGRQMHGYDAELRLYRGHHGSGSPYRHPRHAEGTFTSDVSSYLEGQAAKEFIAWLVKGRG
Sequence of fusion protein PRD (chain, as listed by the source): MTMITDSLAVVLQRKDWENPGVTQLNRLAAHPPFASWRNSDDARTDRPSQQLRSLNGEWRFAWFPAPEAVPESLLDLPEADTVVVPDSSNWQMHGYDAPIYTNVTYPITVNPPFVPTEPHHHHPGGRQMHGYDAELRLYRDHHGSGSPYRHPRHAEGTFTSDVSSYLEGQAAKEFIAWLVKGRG
Sequence of fusion protein PRL (chain, as listed by the source): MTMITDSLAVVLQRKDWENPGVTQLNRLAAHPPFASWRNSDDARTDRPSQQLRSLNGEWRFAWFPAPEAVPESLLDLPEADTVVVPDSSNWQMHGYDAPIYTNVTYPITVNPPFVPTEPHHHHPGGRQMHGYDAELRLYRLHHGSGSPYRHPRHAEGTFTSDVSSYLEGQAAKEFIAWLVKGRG
Sequence of fusion protein PRY (chain, as listed by the source): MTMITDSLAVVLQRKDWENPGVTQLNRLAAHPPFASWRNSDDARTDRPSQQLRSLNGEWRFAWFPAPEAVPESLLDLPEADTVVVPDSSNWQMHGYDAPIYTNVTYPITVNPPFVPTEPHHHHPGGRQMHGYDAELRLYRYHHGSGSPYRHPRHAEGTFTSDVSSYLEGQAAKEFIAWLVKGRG
Sequence of fusion protein PRC (chain, as listed by the source): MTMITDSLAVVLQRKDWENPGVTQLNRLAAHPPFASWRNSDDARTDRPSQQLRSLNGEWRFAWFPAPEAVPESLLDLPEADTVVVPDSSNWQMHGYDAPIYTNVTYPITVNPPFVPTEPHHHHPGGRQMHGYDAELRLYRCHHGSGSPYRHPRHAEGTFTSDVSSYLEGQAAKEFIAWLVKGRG
Sequence of fusion protein PRT (chain, as listed by the source): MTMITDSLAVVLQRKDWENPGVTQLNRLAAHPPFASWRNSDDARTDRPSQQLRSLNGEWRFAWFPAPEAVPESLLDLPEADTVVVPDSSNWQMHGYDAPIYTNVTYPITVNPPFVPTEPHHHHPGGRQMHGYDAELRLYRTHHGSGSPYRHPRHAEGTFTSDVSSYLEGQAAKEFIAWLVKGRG
Sequence of fusion protein PRM (chain, as listed by the source): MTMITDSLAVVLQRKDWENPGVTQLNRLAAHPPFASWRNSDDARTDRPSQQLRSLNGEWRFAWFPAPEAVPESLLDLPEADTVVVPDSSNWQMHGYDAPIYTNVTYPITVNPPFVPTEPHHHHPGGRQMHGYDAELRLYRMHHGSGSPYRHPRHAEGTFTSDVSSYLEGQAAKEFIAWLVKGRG
Sequence of fusion protein PRN (chain, as listed by the source): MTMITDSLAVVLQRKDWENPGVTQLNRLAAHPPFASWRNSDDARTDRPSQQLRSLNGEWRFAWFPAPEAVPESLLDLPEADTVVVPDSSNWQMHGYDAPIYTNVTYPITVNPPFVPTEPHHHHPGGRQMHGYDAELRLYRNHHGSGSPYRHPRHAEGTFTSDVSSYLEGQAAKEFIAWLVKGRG
Sequence of fusion protein PRR (chain, as listed by the source): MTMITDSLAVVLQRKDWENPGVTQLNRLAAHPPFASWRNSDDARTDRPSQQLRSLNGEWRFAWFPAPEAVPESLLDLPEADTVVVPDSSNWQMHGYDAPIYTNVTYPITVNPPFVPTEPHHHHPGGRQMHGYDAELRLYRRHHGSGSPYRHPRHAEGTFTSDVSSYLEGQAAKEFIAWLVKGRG
Sequence of fusion protein PRE (chain, as listed by the source): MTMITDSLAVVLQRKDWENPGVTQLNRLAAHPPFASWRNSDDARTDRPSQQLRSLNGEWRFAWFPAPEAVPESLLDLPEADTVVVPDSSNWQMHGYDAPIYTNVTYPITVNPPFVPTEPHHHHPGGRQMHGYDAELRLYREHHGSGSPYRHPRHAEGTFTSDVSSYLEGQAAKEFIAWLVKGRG
Sequence of fusion protein PRW (chain, as listed by the source): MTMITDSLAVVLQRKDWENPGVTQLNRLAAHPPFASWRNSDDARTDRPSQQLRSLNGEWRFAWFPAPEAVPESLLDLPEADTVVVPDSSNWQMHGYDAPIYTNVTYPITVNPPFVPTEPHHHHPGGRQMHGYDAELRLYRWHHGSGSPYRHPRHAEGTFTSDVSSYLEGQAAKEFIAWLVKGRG
Sequence of fusion protein PRA (chain, as listed by the source): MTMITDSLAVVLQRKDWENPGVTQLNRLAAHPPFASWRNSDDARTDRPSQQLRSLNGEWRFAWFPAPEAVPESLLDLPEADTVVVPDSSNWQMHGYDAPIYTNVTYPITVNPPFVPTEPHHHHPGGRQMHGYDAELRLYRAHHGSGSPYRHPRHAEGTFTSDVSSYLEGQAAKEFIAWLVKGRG
Sequence of fusion protein PRI (chain, as listed by the source): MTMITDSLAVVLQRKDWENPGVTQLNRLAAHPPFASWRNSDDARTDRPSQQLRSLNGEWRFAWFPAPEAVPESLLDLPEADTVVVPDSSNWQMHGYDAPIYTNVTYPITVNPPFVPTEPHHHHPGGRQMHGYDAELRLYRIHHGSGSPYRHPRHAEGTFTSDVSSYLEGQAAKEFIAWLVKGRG
Sequence of fusion protein PRS (chain, as listed by the source): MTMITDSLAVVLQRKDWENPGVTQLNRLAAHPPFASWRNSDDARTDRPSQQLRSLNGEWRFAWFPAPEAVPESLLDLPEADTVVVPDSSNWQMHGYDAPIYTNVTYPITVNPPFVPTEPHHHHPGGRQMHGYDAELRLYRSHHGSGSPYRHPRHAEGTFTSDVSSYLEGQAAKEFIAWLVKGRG
Sequence of fusion protein PRK (chain, as listed by the source): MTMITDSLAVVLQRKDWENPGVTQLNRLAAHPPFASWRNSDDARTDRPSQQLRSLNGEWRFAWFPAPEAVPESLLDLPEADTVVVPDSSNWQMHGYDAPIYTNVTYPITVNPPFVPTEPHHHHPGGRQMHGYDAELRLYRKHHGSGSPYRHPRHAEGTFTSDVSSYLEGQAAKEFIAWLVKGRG

B1: OmpT protease variant OmpT D97P (protein)
chain: STETLSFTPDNINADISLGTLSGKTKERVYLAEEGGRKVSQLDWKFNNAAIIKGAINWDLMPQISIGAAGWTTLGSRGGNMVDQDWMDSSNPGTWTPESRHPDTQLNYANEFDLNIKGWLLNEPNYRLGLMAGYQESRYSFTARGGSYIYSSEEGFRDDIGSFPNGERAIGYKQRFKMPYIGLTGSYRYEDFELGGTFKYSGWVESSDNDEHYDPGKRITYRSKVKDQNYYSVAVNAGYYVTPNAKVYVEGAWNRVTNKKGNTSLYDHNNNTSDYSKNGAGIENYNFITTAGLKYTF
less than 3.0%: all assays above

B2: OmpT protease variant OmpT D97W (protein)
chain: STETLSFTPDNINADISLGTLSGKTKERVYLAEEGGRKVSQLDWKFNNAAIIKGAINWDLMPQISIGAAGWTTLGSRGGNMVDQDWMDSSNPGTWTWESRHPDTQLNYANEFDLNIKGWLLNEPNYRLGLMAGYQESRYSFTARGGSYIYSSEEGFRDDIGSFPNGERAIGYKQRFKMPYIGLTGSYRYEDFELGGTFKYSGWVESSDNDEHYDPGKRITYRSKVKDQNYYSVAVNAGYYVTPNAKVYVEGAWNRVTNKKGNTSLYDHNNNTSDYSKNGAGIENYNFITTAGLKYTF
less than 3.0%: all assays above

B3: OmpT protease variant OmpT D97Y (protein)
chain: STETLSFTPDNINADISLGTLSGKTKERVYLAEEGGRKVSQLDWKFNNAAIIKGAINWDLMPQISIGAAGWTTLGSRGGNMVDQDWMDSSNPGTWTYESRHPDTQLNYANEFDLNIKGWLLNEPNYRLGLMAGYQESRYSFTARGGSYIYSSEEGFRDDIGSFPNGERAIGYKQRFKMPYIGLTGSYRYEDFELGGTFKYSGWVESSDNDEHYDPGKRITYRSKVKDQNYYSVAVNAGYYVTPNAKVYVEGAWNRVTNKKGNTSLYDHNNNTSDYSKNGAGIENYNFITTAGLKYTF
less than 3.0%: all assays above

B4: OmpT protease variant OmpT D97R (protein)
chain: STETLSFTPDNINADISLGTLSGKTKERVYLAEEGGRKVSQLDWKFNNAAIIKGAINWDLMPQISIGAAGWTTLGSRGGNMVDQDWMDSSNPGTWTRESRHPDTQLNYANEFDLNIKGWLLNEPNYRLGLMAGYQESRYSFTARGGSYIYSSEEGFRDDIGSFPNGERAIGYKQRFKMPYIGLTGSYRYEDFELGGTFKYSGWVESSDNDEHYDPGKRITYRSKVKDQNYYSVAVNAGYYVTPNAKVYVEGAWNRVTNKKGNTSLYDHNNNTSDYSKNGAGIENYNFITTAGLKYTF
less than 3.0%: all assays above

B5: OmpT protease variant OmpT D97K (protein)
chain: STETLSFTPDNINADISLGTLSGKTKERVYLAEEGGRKVSQLDWKFNNAAIIKGAINWDLMPQISIGAAGWTTLGSRGGNMVDQDWMDSSNPGTWTKESRHPDTQLNYANEFDLNIKGWLLNEPNYRLGLMAGYQESRYSFTARGGSYIYSSEEGFRDDIGSFPNGERAIGYKQRFKMPYIGLTGSYRYEDFELGGTFKYSGWVESSDNDEHYDPGKRITYRSKVKDQNYYSVAVNAGYYVTPNAKVYVEGAWNRVTNKKGNTSLYDHNNNTSDYSKNGAGIENYNFITTAGLKYTF
less than 3.0%: all assays above

B6: OmpT protease variant OmpT D97G (protein)
chain: STETLSFTPDNINADISLGTLSGKTKERVYLAEEGGRKVSQLDWKFNNAAIIKGAINWDLMPQISIGAAGWTTLGSRGGNMVDQDWMDSSNPGTWTGESRHPDTQLNYANEFDLNIKGWLLNEPNYRLGLMAGYQESRYSFTARGGSYIYSSEEGFRDDIGSFPNGERAIGYKQRFKMPYIGLTGSYRYEDFELGGTFKYSGWVESSDNDEHYDPGKRITYRSKVKDQNYYSVAVNAGYYVTPNAKVYVEGAWNRVTNKKGNTSLYDHNNNTSDYSKNGAGIENYNFITTAGLKYTF
less than 3.0%: all assays above
